Laboratory results from patent US20110020786A1 (BAYLOR COLLEGE OF MEDICINE, published 2011).
Ends that are not written are not given here.

How the values were obtained:
[1] = molecular target: T1, Norwalk virus-like particles (genogroup I) (Norwalk virus (genogroup I Norovirus), UniProt Q83884 1-530); assay: SPR (BIAcore), VLPs immobilized, dendrimer injected
T1 construct: also called NV; NVLPs
T1 sequence: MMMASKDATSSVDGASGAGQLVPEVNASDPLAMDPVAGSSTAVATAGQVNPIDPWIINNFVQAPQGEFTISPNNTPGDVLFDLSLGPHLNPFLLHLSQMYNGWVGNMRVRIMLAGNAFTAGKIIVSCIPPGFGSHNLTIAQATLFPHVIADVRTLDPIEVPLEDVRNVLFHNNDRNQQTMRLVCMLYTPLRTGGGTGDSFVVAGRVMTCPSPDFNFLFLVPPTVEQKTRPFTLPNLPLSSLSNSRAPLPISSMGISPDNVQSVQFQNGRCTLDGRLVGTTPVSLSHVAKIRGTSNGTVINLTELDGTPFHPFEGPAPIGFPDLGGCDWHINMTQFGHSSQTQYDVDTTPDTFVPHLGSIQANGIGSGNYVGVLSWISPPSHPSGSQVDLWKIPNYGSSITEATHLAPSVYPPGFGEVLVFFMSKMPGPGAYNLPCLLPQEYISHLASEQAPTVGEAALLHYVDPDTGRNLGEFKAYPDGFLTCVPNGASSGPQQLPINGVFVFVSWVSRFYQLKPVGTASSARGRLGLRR

[2] = molecular target: T2, Houston virus-like particles (genogroup II) (Norovirus genogroup II, Houston strain); assay: as above
T2 construct: Recombinant VLP; also called HOV

[3] = molecular target: T3, Snow Mountain virus-like particles (genogroup II) (Norovirus genogroup II, Snow Mountain …); assay: as above
T3 construct: Recombinant VLP; also called SMV

[4] = molecular target: T4, Grimsby virus-like particles (genogroup II) (Norovirus genogroup II, Grimsby strain); assay: as above
T4 construct: Recombinant VLP; also called GRV

[5] = molecular target: T1, Norwalk virus-like particles (genogroup …); assay: ELISA: dendrimer coated at 0.4 mg/mL (32 µM), VLPs added at 2 µg/mL, detection with MAb3912 and goat anti-mouse-HRP, ABTS at 405 nm
[6] = molecular target: T1, Norwalk virus-like particles (genogroup …); assay: ELISA: dendrimer coated, VLPs added, detection with MAb3912 and goat anti-mouse-HRP, ABTS at 405 nm

B1: AHFQTHTVPLSL8 (the octovalent dendrimer of SEQ ID NO: 2) (peptide)
peptide: AHFQTHTVPLSL
modifications: also: octovalent MAP dendrimer, eight copies on branching lysine core
notes: Octovalent peptide dendrimer (MAP)
With B1 the equilibrium average response [1] was 6750 RU, the equilibrium average response [2] was 6710 RU and the equilibrium average response [3] was 6430 RU. For the same binder, the equilibrium average response [4] was 6380 RU.

B2: RHFQTHTVPLSL8 (the octovalent dendrimer of SEQ ID NO: 1) (peptide)
peptide: RHFQTHTVPLSL
modifications: also: octovalent MAP dendrimer, eight copies on branching lysine core
notes: as for B1
B2: binds [5].

B3: SREPQYGGPAAD8 (the octovalent dendrimer of SEQ ID NO: 5) (peptide)
peptide branch of the dendrimer: SREPQYGGPAAD
notes: also called nonspecific octovalent dendrimer
B3: no binding [6].
